Results from US20140080161A1, “PHOSPHATASE COUPLED KINASE ASSAY” (RESEARCH AND DIAGNOSTIC SYSTEMS, INC., priority 2010, published 2014).
One block for each molecule: values may come before it.

Experiments:
[1] = Phosphatase coupled kinase assay, ERK1 specific activity; format: biochemical; settings: 4 mM ATP, 4 mM MBP peptide
Experimental: (§1) The kinase reactions were carried out in 50 μL of kinase assay buffer including 25 mM Tris, 150 mM NaCl, 5 mM MgCl2, and 5 mM CaCl2 at pH 7.5 in a 96 well plate at room temperature. Each reaction was stopped with 30 μL of Malachite Reagent A and 100 μL of water. The color was developed with 30 μL Malachite Reagent B. The plate was read at 620 nm with a multi-well plate reader. If the predicted phosphate content in the reaction was above 4,000 pmol, the reaction was diluted before phosphate detection.
A series of reactions were performed with extracellular signal-regulated kinase 1 (ERK1) as the kinase. Various amounts of ERK1 (0, 0.1, 0.2, 0.4 and 0.8 μg) were combined with 4 mM ATP, 4 mM MBP peptide acceptor substrate, and 0.2 μg CD39L2. […] The reactions were stopped after 20 minutes, the Malachite Green assay was performed as described above, and the OD was measured at 620 nm. The results are shown in FIG. 10, wherein the OD reading is plotted against the quantity of ERK1. This plot was then used to determine the specific activity of ERK1. The specific activity was calculated by first determining the slope of the curve (0.7728 OD/μg), which was then multiplied by a conversion factor (4081 pmol/OD) and divided by the reaction time (20 minutes) (0.7728 OD/μg×4081 pmol/OD/20 min=157.69 pmol/min/μg). The coupling efficiency of rhCD39L2 in 4 mM ATP was predicted to be 0.4 based on the data of Example 3 (FIG. 5). The specific activity of the ERK1 was then adjusted for the coupling efficiency and was calculated to be 394.22 pmol/min/μg. (157.69 pmol/min/μg/0.4=394.22 pmol/min/μg)

[2] = enzyme as obtained from R&D Systems; cited from earlier work
[3] = ADP hydrolysis curve with increasing amounts of phosphatase, free phosphate by Malachite Green; format: biochemical; settings: 5 minutes
Source text: The relative activity of the phosphatase on ADP and ATP can be measured by creating hydrolysis curves for ADP and ATP. For example, such hydrolysis curves may be created by performing a series of reactions separately combining set quantities of ADP or ATP with varying quantities of phosphatase and detecting the free phosphate produced. An example of such curves is described in Example 1 below. The resulting phosphate levels (or OD readings, which directly correspond to the phosphate levels) can be plotted against the amount of phosphatase used. The phosphate level or OD readings can be compared at the same quantity of the phosphatase to determine the relative activity of the phosphatase for ADP as compared to ATP. […] The amount of phosphatase to be used for kinase reactions is preferably selected from within the rapidly rising portion of the ADP hydrolysis curve. In addition, the relative activity of the phosphatase for ADP versus ATP is preferably compared within this rapidly rising portion of the hydrolysis curve, at or near the steepest portion of the curve. At phosphatase levels below this range, the generated signals are weak, while at phosphatase levels above this range, the ADP hydrolysis approaches completion, which could underestimate the activity of the phosphatase on ADP due to exhaustion of the substrate.
as §1
In this experiment, the relative activity of rhCD39L2 on ADP and ATP was determined. In a first series of reactions, 100 nmol of 2 mM ATP was combined with increasing amounts of rhCD39L2 (0.03125 μg, 0.0625 μg, 0.125 μg, 0.25 μg, 0.5 μg) for 20 minutes. Likewise in a second series of reactions, 100 nmol of 2 mM ADP was combined with the same increasing amounts of rhCD39L2 for 20 minutes. The reactions were stopped after 20 minutes and free phosphate was measured using the Malachite Green assay as described above.
The relative activity of recombinant mouse CD 39L2 (rmCD39L2) on ADP and ATP was determined in a series of reactions similar to Example 1. 100 nmol of 2 mM ATP was combined with increasing amounts of rmCD39L2 (0.03125 μg, […], 0.125 0.25 μg, 0.5 μg). Likewise in a second series of reactions, 100 nmol of 2 mM ADP was combined with the same increasing amounts of rmCD39L2. The reactions were stopped after 5 minutes and free phosphate was measured using the Malachite Green assay as described above.
The experiment of Example 1 was repeated using recombinant human CD39L4 (rhCD39L4). 100 nmol of ATP (2 mM) was combined with increasing amounts of rhCD39L4 (0.03125 μg, 0.0625 μg, 0.125 μg, 0.25 μg, 0.5 μg, 1.0 μg). Likewise in a second series of reactions, 100 nmol of ADP (2 mM) was combined with the same increasing amounts of rhCD39L4 for 5 minutes. The reactions were stopped after 5 minutes and free phosphate was measured using the Malachite Green assay as described above. […] As such, the necessary preference of the phosphatase for ADP as compared to ATP is present.

[4] = Specific activity of the phosphatase (free phosphate released per time per amount); format: biochemical
Source text: Phosphatases used in embodiments of the invention have a high specific activity on ADP. The specific activity of the phosphatase used in the examples is the amount of free phosphate released from a substrate per unit time and per amount of phosphatase under a given set of conditions, and may be determined at the rising phase of an enzymatic dose curve, such as the hydrolysis curve as described above. In some embodiments, the phosphatase has a specific activity of greater than 100 pmol/min/μg under optimal conditions. The conditions may include optimal pH, salt concentrations, and the presence of any cofactor. In other embodiments, the phosphatase has a specific activity of greater than 1,000 pmol/min/μg. In still other embodiments, the phosphatase has a specific activity of greater than 20,000 pmol/min/μg. When phosphatases having lower specific activity are used, larger amounts of such phosphatases or longer reaction times may be used to achieve the same level of hydrolysis as can be achieved with a phosphatase having higher specific activity.

slope of the curve OD versus quantity of ERK1 ([1]; 0.2 μg CD39L2, 20 minutes): 0.7728 OD/μg
Molecule: ERK1: extracellular signal-regulated kinase 1 from R&D Systems
specific activity before coupling efficiency adjustment ([1]; 20 minutes): 157.69 pmol/min/µg | specific activity adjusted for the coupling efficiency ([1]; coupling efficiency 0.4): 394.22 pmol/min/µg

times greater activity with ADP than with ATP ([3]; phosphatase at 0.25 μg): 30-40 times
B1: rmCD39L2: recombinant mouse CD39L2 phosphatase (protein, UniProt Q3U0P5 1-455, looked up)
Ectonucleoside triphosphate …: MRKIPNHGTLRMTKVAYPLGLCVGLFIYVAYIKWHRASAAQAFFTIAGAASGARWTQQAFSSPGSAARGHEVFYGIMFDAGSTGTRIHVFQFARPPGETPTLTHETFKALKPGLSAYADDVEKSAQGIQELLNVAKQHIPYDFWKATPLVLKATAGLRLLPGEKAQKLLQKVKEVFKASPFLVGDDCVSIMNGTDEGVSAWITVNFLTGSLKTPGSSSVGMLDLGGGSTQITFLPRVEGTLQASPPGHLTALQMFNRTYKLYSYSYLGLGLMSARLAILGGVEGKPAENDKELVSPCLSPRFRGEWEHAEVTYRISGQKAVGLYELCASRVSEVLRNKVHRTEEAQHVDFYAFSYYYDLAASFGLIDAEKGGSLVVGDFEIAAKYVCRTLETQPPSSPFACMDLTYISLLLHEFGFPGDKVLKLARKIDNVETSWALGAIFHYIDSLKRQKVPAL
specific activity [2]: > 100,000 pmol/min/μg

level of activity compared with rhCD39L2 ([3]; Example 9, up to 1.0 μg): lower level of activity than rhCD39L2
B2: rhCD39L4: recombinant human CD39L4 phosphatase (protein, UniProt O75356 25-428, looked up)
Nucleoside diphosphate …: NQQTWFEGIFLSSMCPINVSASTLYGIMFDAGSTGTRIHVYTFVQKMPGQLPILEGEVFDSVKPGLSAFVDQPKQGAETVQGLLEVAKDSIPRSHWKKTPVVLKATAGLRLLPEHKAKALLFEVKEIFRKSPFLVPKGSVSIMDGSDEGILAWVTVNFLTGQLHGHRQETVGTLDLGGASTQITFLPQFEKTLEQTPRGYLTSFEMFNSTYKLYTHSYLGFGLKAARLATLGALETEGTDGHTFRSACLPRWLEAEWIFGGVKYQYGGNQEGEVGFEPCYAEVLRVVRGKLHQPEEVQRGSFYAFSYYYDRAVDTDMIDYEKGGILKVEDFERKAREVCDNLENFTSGSPFLCMDLSYITALLKDGFGFADSTVLQLTKKVNNIETGWALGATFHLLQSLGISH
specific activity on ADP [4]: > 1,000 pmol/min/μg
